Data taken from IntAct's records for PubMed 18614016.

B1: Tyrosine-protein kinase CSK (Homo sapiens), P41240 (parent)
chain: MSAIQAAWPSGTECIAKYNFHGTAEQDLPFCKGDVLTIVAVTKDPNWYKAKNKVGREGIIPANYVQKREGVKAGTKLSLMPWFHGKITREQAERLLYPPETGLFLVRESTNYPGDYTLCVSCDGKVEHYRIMYHASKLSIDEEVYFENLMQLVEHYTSDADGLCTRLIKPKVMEGTVAAQDEFYRSGWALNMKELKLLQTIGKGEFGDVMLGDYRGNKVAVKCIKNDATAQAFLAEASVMTQLRHSNLVQLLGVIVEEKGGLYIVTEYMAKGSLVDYLRSRGRSVLGGDCLLKFSLDVCEAMEYLEGNNFVHRDLAARNVLVSEDNVAKVSDFGLTKEASSTQDTGKLPVKWTAPEALREKKFSTKSDVWSFGILLWEIYSFGRVPYPRIPLKDVVPRVEKGYKMDAPDGCPPAVYEVMKNCWHLDAAMRPSFLQLREQLEHIKTHELHL

Variants of: B1
Details: with src_chick SRC

Effect of a mutation on the interaction, decreasing interaction:
R279A
R283A
R281A
R389A
R384A
